Patent US20150246947A1 (BAXALTA, published 2015)
“And” between values parts separate entries of the source, which are not always exact repeats. Equal entries are not always repeated. Positions of bridges follow the written chain, without caps; N, C: chain ends.

T1: human Protein S (UniProt P07225 42-676)
T1 chain: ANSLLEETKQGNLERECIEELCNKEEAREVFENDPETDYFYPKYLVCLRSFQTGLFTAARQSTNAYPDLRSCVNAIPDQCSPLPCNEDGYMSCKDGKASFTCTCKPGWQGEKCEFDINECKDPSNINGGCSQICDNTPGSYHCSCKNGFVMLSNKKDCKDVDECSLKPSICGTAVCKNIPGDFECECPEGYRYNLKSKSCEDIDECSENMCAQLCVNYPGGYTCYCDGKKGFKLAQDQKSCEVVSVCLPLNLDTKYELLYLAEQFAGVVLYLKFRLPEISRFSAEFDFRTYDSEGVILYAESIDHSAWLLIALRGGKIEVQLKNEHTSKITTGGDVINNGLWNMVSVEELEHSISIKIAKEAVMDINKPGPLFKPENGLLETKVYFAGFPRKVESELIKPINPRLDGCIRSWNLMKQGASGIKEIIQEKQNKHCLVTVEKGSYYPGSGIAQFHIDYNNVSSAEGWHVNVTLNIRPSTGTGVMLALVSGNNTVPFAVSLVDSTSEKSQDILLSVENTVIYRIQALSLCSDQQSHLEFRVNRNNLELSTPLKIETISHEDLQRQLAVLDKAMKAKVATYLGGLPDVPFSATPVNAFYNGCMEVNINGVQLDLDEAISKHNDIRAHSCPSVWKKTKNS

B1: JBS3171 (peptide)
chain: Ac-TCLVSAGWYDYNCDHYREFT-NH2
modifications: disulfide 2-13
SMILES: CC(=O)N[C@H](C(=O)N[C@H]1CSSC[C@@H](C(=O)N[C@@H](CC(=O)O)C(=O)N[C@@H](Cc2c[nH]cn2)C(=O)N[C@@H](Cc2ccc(O)cc2)C(=O)N[C@@H](CCCNC(=N)N)C(=O)N[C@@H](CCC(=O)O)C(=O)N[C@@H](Cc2ccccc2)C(=O)N[C@H](C(N)=O)[C@@H](C)O)NC(=O)[C@H](CC(N)=O)NC(=O)[C@H](Cc2ccc(O)cc2)NC(=O)[C@H](CC(=O)O)NC(=O)[C@H](Cc2ccc(O)cc2)NC(=O)[C@H](Cc2c[nH]c3ccccc23)NC(=O)CNC(=O)[C@H](C)NC(=O)[C@H](CO)NC(=O)[C@H](C(C)C)NC(=O)[C@H](CC(C)C)NC1=O)[C@@H](C)O
B2: JBS3168 (peptide)
chain: Ac-TGLCVSAGWYDYNCDHYREFT-NH2
modifications: disulfide 4-14
SMILES: CC(=O)N[C@H](C(=O)NCC(=O)N[C@@H](CC(C)C)C(=O)N[C@H]1CSSC[C@@H](C(=O)N[C@@H](CC(=O)O)C(=O)N[C@@H](Cc2c[nH]cn2)C(=O)N[C@@H](Cc2ccc(O)cc2)C(=O)N[C@@H](CCCNC(=N)N)C(=O)N[C@@H](CCC(=O)O)C(=O)N[C@@H](Cc2ccccc2)C(=O)N[C@H](C(N)=O)[C@@H](C)O)NC(=O)[C@H](CC(N)=O)NC(=O)[C@H](Cc2ccc(O)cc2)NC(=O)[C@H](CC(=O)O)NC(=O)[C@H](Cc2ccc(O)cc2)NC(=O)[C@H](Cc2c[nH]c3ccccc23)NC(=O)CNC(=O)[C@H](C)NC(=O)[C@H](CO)NC(=O)[C@H](C(C)C)NC1=O)[C@@H](C)O
B3: JBS3160 (peptide)
chain: Ac-CGLVSAGWYDYNFCDHYREFT-NH2
modifications: disulfide 1-14
SMILES: CC(=O)N[C@H]1CSSC[C@@H](C(=O)N[C@@H](CC(=O)O)C(=O)N[C@@H](Cc2c[nH]cn2)C(=O)N[C@@H](Cc2ccc(O)cc2)C(=O)N[C@@H](CCCNC(=N)N)C(=O)N[C@@H](CCC(=O)O)C(=O)N[C@@H](Cc2ccccc2)C(=O)N[C@H](C(N)=O)[C@@H](C)O)NC(=O)[C@H](Cc2ccccc2)NC(=O)[C@H](CC(N)=O)NC(=O)[C@H](Cc2ccc(O)cc2)NC(=O)[C@H](CC(=O)O)NC(=O)[C@H](Cc2ccc(O)cc2)NC(=O)[C@H](Cc2c[nH]c3ccccc23)NC(=O)CNC(=O)[C@H](C)NC(=O)[C@H](CO)NC(=O)[C@H](C(C)C)NC(=O)[C@H](CC(C)C)NC(=O)CNC1=O
B4: JBS3162 (peptide)
chain: Ac-TCLVSAGWYDCYNFDHYREFT-NH2
modifications: disulfide 2-11
SMILES: CC(=O)N[C@H](C(=O)N[C@H]1CSSC[C@@H](C(=O)N[C@@H](Cc2ccc(O)cc2)C(=O)N[C@@H](CC(N)=O)C(=O)N[C@@H](Cc2ccccc2)C(=O)N[C@@H](CC(=O)O)C(=O)N[C@@H](Cc2c[nH]cn2)C(=O)N[C@@H](Cc2ccc(O)cc2)C(=O)N[C@@H](CCCNC(=N)N)C(=O)N[C@@H](CCC(=O)O)C(=O)N[C@@H](Cc2ccccc2)C(=O)N[C@H](C(N)=O)[C@@H](C)O)NC(=O)[C@H](CC(=O)O)NC(=O)[C@H](Cc2ccc(O)cc2)NC(=O)[C@H](Cc2c[nH]c3ccccc23)NC(=O)CNC(=O)[C@H](C)NC(=O)[C@H](CO)NC(=O)[C@H](C(C)C)NC(=O)[C@H](CC(C)C)NC1=O)[C@@H](C)O

Target: T1, human Protein S
Assay: LANCE competition
In short: (§1)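 IC50 was derived by non-linear regression of the acceptor emission in a LANCE time-resolved FRET competition assay using europium-labelled Protein S, ULight-labelled streptavidin, a biotinylated tracer peptide and three-fold titrations of unlabelled test peptide. Reactions of 50 µl contained 10 nM Protein S, 100 nM streptavidin and 300 nM tracer at final concentration (2 nM Protein S and 60 nM tracer on a Tecan F500), were kept 1 hour at room temperature, and were read at Ex 340 nm, Em 665 nm.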

Binder | IC50
Ac-TGLVEAGWYDYNFDHYREFT-NH2 [JBS2740] | 16.4 nM
Ac-TGLVSAGWYDYNFDTYREFT-NH2 [JBS2885] | 4.4 nM
TGLVSAGWYDYNFDHYREFTC [JBS2713] | 20.1 nM
Ac-TGLVSAGWYDYNFDHYMEFT-NH2 [JBS2810] | 4.4 nM and 5.5 nM
Ac-TGHVSAGWYDYNSDHYREFT-NH2 [JBS2659] | 16.4 nM

Target: T1, human Protein S
Assay: LANCE competition
Remark: another data set of the same source
In short: as §1

Binder | IC50 [nM]
B1 | 336
TGCLVSAGWYDYNCDHYREFT [JBS3169] | 544
Ac-DDEVSIGWYDYNTDEYVEFW-NH2 [JBS3295] | 14.6
Ac-EYYVSAGWYDYNNDTYNEFW-NH2 [JBS3243] | 1.3
Ac-TGLVSAGWYDYNFDHYREF-NH2 [JBS3181] | 9.5
Ac-TCLVSAGWYDYNFDCYREFT-NH2 (disulfide 2-15 (inferred); not fully specified) [JBS3173] | 208
MEYYVSAGWYDYNTDTYYEFE [JBS3215] | 0.8
Ac-TYYVSAGWYGYNNDRYYEFY-NH2 [JBS3250] | 22.7
Ac-GLVSAGWYDYNFDHYREF-NH2 [JBS3182] | 20.9
Ac-EYTVSAGWYDYNKDTYEEFK-NH2 [JBS3220] | 3.5
Ac-EYYVSAGWYDYNTDRYYEFY-NH2 [JBS3238] | 1.3
MEYYVSAGWYDYNTDTYYEFE [JBS3224] | 1.3
B2 | 604
Ac-SGLVSAGWYDYNFDSYREFT-NH2 [JBS3185] | 7.2
Ac-SATVSAGWYDYNKDVYFEFE-NH2 [JBS3273] | 2.3
Ac-YGLVSAGWYDYNFDHYREFT-NH2 [JBS2928] | 3.7
Ac-EYYVSAGWYNYEEDSYYEFE-NH2 [JBS3247] | 1.9

Binder | IC50 [nM]
Ac-EYYVSAGWHDYNKDIYFEFF-NH2 [JBS3242] | 67.8
CGLVSAGWYDYNFDCYREFT [JBS3172] | 55.2
Ac-EYYVSAGWYDYNADTYYEFE-NH2 [JBS3234] | 2.7
CGLVSAGWYDCYNFDHYREFT [JBS3157] | 812
Ac-QYYVVAGWYDYNTDSYYEFD-NH2 [JBS3251] | 0.6
Ac-EYYVSAGWYDYNDDKYYEFE-NH2 [JBS3217] | 1.3
Ac-EYYVSAGWYDYNNDIYYEFI-NH2 [JBS3240] | 2
Ac-TGLVSAGWYDYNFDHYYEFT-NH2 [JBS2941] | 1.4
B3 | 981
Ac-EYYVSAGWYDYEHDTYLEFY-NH2 [JBS3246] | 2.2
CGLVSAGWYDYNCDHYREFT [JBS3170] | 206
Ac-EYYVSAGWYDYNTDKYYEFI-NH2 [JBS3237] | 1.5
Ac-EYYVSAGWYDTNNDRYYEFI-NH2 [JBS3239] | 2
Ac-GLVSAGWYDYNFDHYREFT-NH2 [JBS3180] | 9
Ac-EYYVSAGWYDYNSDTYFEFI-NH2 [JBS3245] | 2
Ac-EYYVSAGWYDYNNDIYLEFE-NH2 [JBS3241] | 1.2
B4 | 1510
